This is an account of results in article PMC4451072, “A Linear Epitope in the N-Terminal Domain of CCR5 and Its Interaction with Antibody” (PLoS ONE, 2015).

Entries after “also recorded” stand apart in the source; their conditions may differ. Read-outs that look alike come from different tables or passages of the source.

Assay [1] concerns hCCR5_1–31. Kind of assay: Epitope mapping with truncated peptides by competitive ELISA. It counts as binding, human. An excerpt: (§1) The peptide encoding the N-terminal extracellular domain of human CCR5 ([…]-biotin, hCCR5_1–31) was synthesised by the Peptide Synthesis Laboratory, Cancer ResearchUK. The same peptide without the C-terminal cysteine biotin was synthesised by PeptideSynthetics (Fareham PO15 6DP). An analogue of the peptide with sulphated tyrosines at position 10 and 14 was synthesised as described previously and given as a gift by Prof. Fred Naider (City University of New York). The panel of truncated peptides used for epitope mapping (See Results, Subsection “Defining a linear epitope in the N-terminal domain of CCR5”) was synthesised by Sigma (Pepscreen). The chimeric peptide used for immunisation ([…]) was synthesised by the peptide synthesis facility at the University of Ghent. All peptides were >80% pure by HPLC and mass spectroscopy.
The pepscreen panel of CCR5 truncated peptides was screened by competitive ELISA. Antibody supernatant (typically diluted 1 in 1000 or 1 in 4000) was added to N-terminal domain peptide coated ELISA plates in the presence or absence of 1 μg/well of one of the competing peptides. The antibody peptide mixture was incubated overnight, washed and then bound antibody measured as described above.
A general note: An ELISA detects its analyte on a solid surface through an enzyme-linked reagent.

The test system of assay [2] is cell surface CCR5 (expressed on CCR5 transfectants). The experiment in a line: Affinity of RoAb13 for cell surface CCR5 by flow cytometry (Scatchard plot). The format is binding, human. To be noted: abstract value, CCR5-transfected cells. From the text:
(§2) Chinese hamster ovary cells were transfected by electroporation with vectors expressing human or mouse CCR5 in an expression vector containing a neomycin resistance gene (Genecopoeia, #EX-Z0659-M02 and #EX-Mm01826-M02 respectively). G418 resistant cells were cloned by limit dilution and receptor expressing cells were identified by flow cytometry using RoAb13 anti-CCR5 and Rabbit anti-mouse FITC for human CCR5, and PE anti-Mouse CD195 (CCR5) (clone HM-CCR5, Insight Biotechnology) for mouse CCR5.
(§3) CHO cell transfectants (5 × 10^4) were incubated in 10% goat serum (Sigma) and 0.1% sodium azide for 30 min at 4°C. Purified antibodies or mouse sera at various dilutions were added, and incubated for 2–3 h at 4°C. Cells were washed and bound antibody detected using […] FITC or APC conjugates (R&D Systems). The number of bound antibody molecules was quantified in some experiments using Quikfit calibration beads containing known numbers of bound mouse IgG molecules as per manufacturers instructions (DAKO, #K0078).
In general terms: In flow cytometry, cells or beads pass a laser one at a time.

Assay [3] deals with hCCR5_1–31 N-terminal domain peptide. Kind of assay: Affinity of RoAb13 for hCCR5_1–31 peptide by competitive (two-stage) ELISA. It counts as binding, human. To be noted: abstract value.
Text: as §1
(§4) 96 well ELISA plates (Nunc) were coated with peptide conjugates (10 μg/ml unless otherwise stated) in coating buffer (0.1 M sodium bicarbonate, pH 8.5), overnight at 4°C. All wells were washed (washing buffer PBS 0.1% Tween-20) and blocked by addition of 2% low fat milk (Tesco) in PBS for at least 1 h at room temperature. […] Unconjugated avidin was used as control coating. […] Bound antibody was detected using alkaline phosphatase coupled rabbit anti-mouse IgG or IgGFab (Sigma) antibody (1:2000 dilution) and substrate (PNPP FAST, Sigma). […]

Assay [4] deals with hCCR5_1–31. Kind of assay: ELISA binding of antibodies to the N-terminal CCR5 peptide. Also on record: species or system human. The settings on record: peptide coupled to avidin, OD 405 nm.
Text: as §1, §4

The subject of assay [5] is human CCR5 (CHO cell transfectants). The experiment in a line: Flow cytometry binding of antibodies to CCR5-transfected CHO cells. To be noted: indirect immunofluorescence.
Text: as §2, §3

The next assay concerns mouse CCR5. Kind of assay: Flow cytometry binding of antibodies to CHO cells transfected with mouse CCR5. The settings on record: normalized to % maximum binding for each antibody.
Text: as §2, §3

Assay [6] deals with untransfected controls (CHO cells). The experiment in a line: Flow cytometry binding of antibodies to untransfected controls. Also on record: species or system Chinese hamster. The settings on record: normalized to % maximum binding for each antibody.
Text: as §2, §3

In assay [7] the test system is hCCR5_1–31 analogue with sulphated tyrosines at position 10 and 14. Kind of assay: ELISA binding of RoAb13 to sulphated N-terminal CCR5 peptide. Also on record: species or system human.
Text: as §1, §4

The subject of assay [8] is CCR5 on human peripheral blood subpopulations. The experiment in a line: Expression of CCR5 on human peripheral blood subsets as detected by RoAb13. It counts as binding. The settings on record: S2 Fig. From the text:
Peripheral blood subpopulations were stained using purified RoAb13 Fab fragment directly conjugated with […] as per manufacturer’s instructions.

The subject of a further assay is monocytes. The experiment in a line: Transwell migration assay, monocytes. The format is cell-based, human. The settings on record: for migration of monocytes to macrophage conditioned medium: 3 h at 37°C, conditioned medium from resting and activated (LPS) macrophages. The protocol: Peripheral blood mononuclear cells and monocyte derived macrophages were prepared from peripheral blood as previously described. The study was approved by the joint University College London / University College London Hospitals NHS Trust Human Research Ethics Committee and written informed consent was obtained from all participants. […] Conditioned media from these cultures were then centrifuged at 10,000g for 5 minutes and stored at -80°C. Polycarbonate transwell inserts (Corning No. 3421, with […] and 6.5 mm diameter) were placed over 500 μL conditioned media or control media or media containing purified chemokines in 24-well plates. […] of freshly isolated PBMC (5x10^6 cells /mL) were loaded into the upper chamber of the transwell, and incubated for 3 hours at 37°C. Transwells were then lifted out of the lower chamber and the contents of the upper chamber were carefully aspirated. Each transwell filter was subsequently tilted to rinse the under surface twice with 200 μL 0.25% Trypsin-EDTA (Gibco) that was allowed to drain into the well (lower chamber). […] The lower chamber cell suspension was collected and fixed with 1% paraformaldehyde in phosphate buffered saline (PBS). […] A FACScalibur flow cytometer (Becton Dickinson) was used with FlowJo (version 9.4.3) analysis software. 10 000 beads were counted to standardised cell count quantitation in each sample and transmigration of cells in the lower chamber was expressed as the proportion of the input.

In assay [9] the test system is human peripheral blood leukocytes. Kind of assay: Transwell migration assay, peripheral blood leukocytes. It counts as cell-based. The settings on record: responses to individual chemokines or inflammatory macrophage conditioned media. Here is the method:
(§5) Peripheral blood mononuclear cells and monocyte derived macrophages were prepared from peripheral blood as previously described. The study was approved by the joint University College London / University College London Hospitals NHS Trust Human Research Ethics Committee and written informed consent was obtained from all participants. […] Conditioned media from these cultures were then centrifuged at 10,000g for 5 minutes and stored at -80°C. Polycarbonate transwell inserts (Corning No. 3421, with […] and 6.5 mm diameter) were placed over 500 μL conditioned media or control media or media containing purified chemokines in 24-well plates. […] of freshly isolated PBMC (5x10^6 cells /mL) were loaded into the upper chamber of the transwell, and incubated for 3 hours at 37°C. Transwells were then lifted out of the lower chamber and the contents of the upper chamber were carefully aspirated. Each transwell filter was subsequently tilted to rinse the under surface twice with 200 μL 0.25% Trypsin-EDTA (Gibco) that was allowed to drain into the well (lower chamber). […] The lower chamber cell suspension was collected and fixed with 1% paraformaldehyde in phosphate buffered saline (PBS). […] 10 000 beads were counted to standardised cell count quantitation in each sample and transmigration of cells in the lower chamber was expressed as the proportion of the input.

For the next assay, the system named is HIV. To be noted: cited from earlier work.
Assay [10] concerns CHO-CCR5 transfected cells. To be noted: ref [19]; cited from earlier work. An excerpt: The clear cut inhibitory effects of the antibody even ...
For a further assay, the system named is lymphocytes. The experiment in a line: Transwell migration assay, lymphocytes. It counts as cell-based, human. The settings on record: 3 h, conditioned medium from resting and activated macrophages. Here is the method: as §5

For the molecule “peptide spanning the whole of 5–25: peptide of the pepscreen panel spanning CCR5 residues 5–25 (VSSPIYDINYYTSEPCQKINV; UniProt P51681 5-25, looked up, fragment)”, in the assay with hCCR5_1–31 [1] (competing peptide 1 μg/well, overnight, competitive ELISA), the “inhibition of R&D1801 binding to hCCR5_1–31” value is on record as “completely blocked”.

B1: RoAb13: mouse monoclonal anti-CCR5 antibody from hybridoma line number PZ3733 (Roche Palo Alto); EMBL LN832627 and LN832628 (antibody, V domains shown)
VH: EVQLQESGGGLVKPGGSLKLSCAASGFTFSTYAMSWVRQTPEKRLEWVASISTGDNTYYTDSVRGRFTISRDNARNILYLQMSSLRSEDTAMYFCTRGRGDRGDLFGYWGQGTLVTVSS
VL: DIVMSQSPSSLAVSVGEKVTMSCKSSQSLLYRGNQMNYLAWYQQKPGQSPKLLIYWASTRESGVPDRFTGSGSGTEFTLTISSVKAEDLTVYYCQQYYTYPRTFGGGTKLEIK
With B1, in assay [2], the affinity for cells was found to be 6e+08 M⁻¹. Moreover, the affinity for peptide in assay [3] stood at 1.2e+07 M⁻¹. Further, in the assay with hCCR5_1–31 [4], the “recognition of the synthetic N-terminal peptide” value is “recognised the synthetic peptide; also recorded: bound to both linear peptide and native forms of the epitope”. The “binding to CCR5-expressing transfectants” value in [5] is given as “bound strongly to CCR5-expressing transfectants; also recorded: quite heterogenous”. Further, in the assay on mouse CCR5, the “binding to CHO cells transfected with mouse CCR5” value is on record as “less than 5 % of maximum binding”. The “binding to untransfected controls” value in assay [6] is “less than 5 % of maximum binding”. The core epitope recognised entry in the assay on hCCR5_1–31 [1] (competitive ELISA with truncated peptides, defined by inhibition of binding by more than 50%) is “between aa8 (proline) and 13(asparagine)”. Besides, in assay [7] (peptide sulphated at tyrosines 10 and 14), the “binding to sulphated vs non-sulphated peptide” value was “bound more strongly (heteroclytic binding) to sulphated than non-sulphated forms of the peptide; also recorded: binding to peptide was significantly enhanced by the sulphation of target tyrosines”. Besides, the “binding to sulphated vs non-sulphated peptide” value in assay [7] (peptide sulphated at tyrosines 10 and 14, listed as RoAb 13) was “binding to the peptide is enhanced by sulfation of tyrosines at positions 10 and 14”. In assay [8], the “detection of CCR5 on CD4, CD8 and NK cells” value is “detected CCR5 on a subpopulation of human peripheral CD4, CD8 and NK cells”; the “detection of CCR5 on monocytes and B cells” value was “low levels of CCR5 expression”. In the assay with monocytes, the “migration in response to CCR5 binding chemokines” value was “blocks migration of monocytes in response to CCR5 binding chemokines; also recorded: ability to block chemokine induced monocyte migration; also recorded: inhibits migration induced by chemokines which bind CCR5” and the “migration of monocytes to macrophage conditioned medium” value is “blocks migration of monocytes; also recorded: inhibits monocyte chemotaxis”. Besides, the “migration in response to CCL2” value with monocytes (CCL2, S3 Fig) is “blocked migration”. In addition, the “migration in response to CCL3” value in the assay on monocytes (CCL3, S3 Fig) is recorded as “blocked migration”. In addition, in the assay on monocytes (CCL4, S3 Fig), the “migration in response to CCL4” value is given as “blocked migration”. Besides, the “migration in response to CXCL12” value with monocytes (CXCL12 (acts via CXCR4), S3 Fig) was “failed to block migration”. Moreover, the “chemokine or conditioned media induced leukocyte migration” value in assay [9] is recorded as “effectively blocked chemokine induced migration of human peripheral blood leukocytes”. Moreover, the HIV blocking result in the assay on HIV (previously shown) is on record as “block HIV infection; also recorded: potent HIV blocking activity”. Besides, the “inhibition of HIV infection” value in the assay on HIV (ref [19],[32]) is on record as “potent inhibitor of HIV infection”. The “inhibition of HIV infection” value in the assay with HIV (single round and spreading infection assays, ref [19]) is “inhibit HIV infection, in both single round and spreading infection assays”. Also, in assay [10], the “block of binding of CCL3, 4 and CCL5” value was “only partial ability to block binding of CCL3, 4 and CCL5”; the “block of chemokine induced calcium flux” value is given as “only partial ability”.

B2: RoAb13 Fab fragment: Fab fragment of RoAb13 produced by papain digestion; PDB 4S2S (antibody, V domains shown)
VH: B1 VH
VL: B1 VL
Take B2: the “migration of monocytes to macrophage conditioned medium” value is reported as “significant difference from control (T test, p<0.05)” in the assay on monocytes and “significantly inhibited the migration of monocytes” with monocytes (listed as Fab fragment of RoAb13). Besides, the “migration of lymphocytes to macrophage conditioned medium” value with lymphocytes is “not lymphocytes”.
